In this assay the target is IL-6R (UniProt P08887). Nature of the assay: chemiluminescent immunoassay; ABEI-labelled human IL-6 on IL-6R-coated magnetic beads, diluent only (no antibody); same control value printed in all four columns.
UniProt P08887, sequence (P08887 20-358 limits assumed): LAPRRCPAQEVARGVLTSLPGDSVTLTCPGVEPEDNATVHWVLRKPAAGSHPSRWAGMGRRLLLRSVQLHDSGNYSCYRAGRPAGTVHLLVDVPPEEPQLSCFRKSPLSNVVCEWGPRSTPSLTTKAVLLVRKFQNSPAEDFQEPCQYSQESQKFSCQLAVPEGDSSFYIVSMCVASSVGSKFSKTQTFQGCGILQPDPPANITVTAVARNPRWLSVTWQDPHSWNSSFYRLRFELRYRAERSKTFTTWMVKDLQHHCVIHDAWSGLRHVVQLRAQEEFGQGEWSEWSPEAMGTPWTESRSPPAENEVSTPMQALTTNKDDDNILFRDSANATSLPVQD

“人IL-6抗原 (from UniProt P05231 30-212) (ligand)” came in with an RLU (相对光强度) of 606000 RLU.

(Values after patent CN113214393A.)
